Laboratory results reported in patent publication US20220042033A1, “COMPOSITION AND METHOD FOR CONFERRING AND/OR ENHANCING TOLERANCE AGAINST HERBICIDES BY USING VARIANTS OF PPO” (FarmHannong Co., Ltd., priority 2017, published 2022).

Tested on: ApPPO1
Assay: Herbicide tolerance test of ApPPO1 wild type and variants in PPO-deficient E. coli BT3(ΔPPO), growth on herbicide-containing LB agar
Format: cell-based, Auxenochlorella protothecoides
Settings: relative to ApPPO1 WT, dark; for Herbicide tolerance, flumioxazin: up to 100 μM (FIGS. 7-12); for Herbicide tolerance, tiafenacil: up to 200 μM (FIGS. 7-12); for Herbicide tolerance, sulfentrazone: up to 400 μM (FIGS. 7-12)
Experimental: Then, the extent of tolerance was evaluated.

| Molecule | Herbicide tolerance, flumioxazin | Herbicide tolerance, tiafenacil | Herbicide tolerance, sulfentrazone |
| --- | --- | --- | --- |
| V213C + Y422T: ApPPO1 (SEQ ID NO: 1) variant (protein, Synthetic (Protoporphyrinogen IX oxidase (ApPPO1) of Auxenochlorella protothecoides)) MPFTHLKPLNRLLGSPRARHPHVAPQAVSVTNTSTTRPGGRSSAPGIPGDAEYDVVIVGAGISGLTTAQALAKQYSDAVPRLLVTEARDCVGGNIITRRDGGYQWEEGPNSFQPSDAVLRAAVDAGVADRLVLGDPKAPRYVYWGGRLRATPSGPDVLTFDLLSLWGKLRAGLGAAGFKAPLPEREESVKEFVTRNLGEEVFQRLIEPFCSGCYAGDPAKLSMKAAFGKVYDLEKGGGSIVGGVLALMKARKQKPPEPRPADLPPKPKGQTVGSFDKGLVTLPSAIAEELGDRVVTGWKLESIDRSGDRFQLTYDTPQGRKKVSARSVALTVPAYTAASLLESRFPKLGKALSSIYYPPVASVALSYPETAILPERLGSDGHLAGFGQLHPRTQGVTTLGTIYASSLFPGRVPEGKVLLLSTFGGATNTRVATMPHGEIVSQVDKDLRKMLIRSDAESPHTVNVTVWPRAIPQFNVGHTDLIQEAKDDLASQGWQGLHLGGNYVAGVALGKCMEAGYKQAAELASHVKSLAT | +++++ (more than 10,000 fold higher tolerance) | +++++ (more than 10,000 fold higher tolerance) | ++++ (1,000-9,999 fold higher tolerance) |
| A215L + Y422T: ApPPO1 (SEQ ID NO: 1) variant (protein, Synthetic (Protoporphyrinogen IX oxidase (ApPPO1) of Auxenochlorella protothecoides)) MPFTHLKPLNRLLGSPRARHPHVAPQAVSVTNTSTTRPGGRSSAPGIPGDAEYDVVIVGAGISGLTTAQALAKQYSDAVPRLLVTEARDCVGGNIITRRDGGYQWEEGPNSFQPSDAVLRAAVDAGVADRLVLGDPKAPRYVYWGGRLRATPSGPDVLTFDLLSLWGKLRAGLGAAGFKAPLPEREESVKEFVTRNLGEEVFQRLIEPFCSGVYLGDPAKLSMKAAFGKVYDLEKGGGSIVGGVLALMKARKQKPPEPRPADLPPKPKGQTVGSFDKGLVTLPSAIAEELGDRVVTGWKLESIDRSGDRFQLTYDTPQGRKKVSARSVALTVPAYTAASLLESRFPKLGKALSSIYYPPVASVALSYPETAILPERLGSDGHLAGFGQLHPRTQGVTTLGTIYASSLFPGRVPEGKVLLLSTFGGATNTRVATMPHGEIVSQVDKDLRKMLIRSDAESPHTVNVTVWPRAIPQFNVGHTDLIQEAKDDLASQGWQGLHLGGNYVAGVALGKCMEAGYKQAAELASHVKSLAT | + (1-9 fold higher tolerance) | + (1-9 fold higher tolerance) | ++++ (1,000-9,999 fold higher tolerance) |
| A215L + Y422I: ApPPO1 (SEQ ID NO: 1) variant (protein, Synthetic (Protoporphyrinogen IX oxidase (ApPPO1) of Auxenochlorella protothecoides)) MPFTHLKPLNRLLGSPRARHPHVAPQAVSVTNTSTTRPGGRSSAPGIPGDAEYDVVIVGAGISGLTTAQALAKQYSDAVPRLLVTEARDCVGGNIITRRDGGYQWEEGPNSFQPSDAVLRAAVDAGVADRLVLGDPKAPRYVYWGGRLRATPSGPDVLTFDLLSLWGKLRAGLGAAGFKAPLPEREESVKEFVTRNLGEEVFQRLIEPFCSGVYLGDPAKLSMKAAFGKVYDLEKGGGSIVGGVLALMKARKQKPPEPRPADLPPKPKGQTVGSFDKGLVTLPSAIAEELGDRVVTGWKLESIDRSGDRFQLTYDTPQGRKKVSARSVALTVPAYTAASLLESRFPKLGKALSSIYYPPVASVALSYPETAILPERLGSDGHLAGFGQLHPRTQGVTTLGTIYASSLFPGRVPEGKVLLLSIFGGATNTRVATMPHGEIVSQVDKDLRKMLIRSDAESPHTVNVTVWPRAIPQFNVGHTDLIQEAKDDLASQGWQGLHLGGNYVAGVALGKCMEAGYKQAAELASHVKSLAT | ++++ (1,000-9,999 fold higher tolerance) | ++++ (1,000-9,999 fold higher tolerance) | ++++ (1,000-9,999 fold higher tolerance) |
